Values joined by “and” are separate entries in the source; they are usually repeats but may differ in a detail not shown here. Equal values may be shown once.
Columns and labels:
[1] = biological target: HIV-1 GagPol, protease-inactive (D25A, PR-), from an expression plasmid (HIV-1); assay: incorporation into virus-like particles (fluorescence microscopy of pelleted, filtered particles)
[2] = biological target: HIV-1 (NL4-3) GagPol, wild type, in authentic virions (HIV-1 (NL4-3)); assay: incorporation into virions (quantitative fluorescence-based Western blot, LI-COR)

Chain of DsRed-clathrin LC (P09496 whole entry): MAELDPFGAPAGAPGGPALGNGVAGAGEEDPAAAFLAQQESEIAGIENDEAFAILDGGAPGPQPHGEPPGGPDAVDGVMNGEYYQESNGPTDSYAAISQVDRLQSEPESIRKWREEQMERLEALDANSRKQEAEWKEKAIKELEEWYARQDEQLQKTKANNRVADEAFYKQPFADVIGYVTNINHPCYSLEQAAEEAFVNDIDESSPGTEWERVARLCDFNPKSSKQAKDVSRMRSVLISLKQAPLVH

Row | Substance | percent of VLPs labelled with DsRed-clathrin LC [1] [%] | percent of the total clathrin HC of the culture present in virions [2]
1 | DsRed-clathrin LC (from UniProt P09496 1-248) (natural protein) | 40 | 
2 | clathrin heavy chain (from UniProt Q00610 1-1675) (natural protein) |  | 6% and 8%

Reference: PMC3128127
